From the supplement of paper PMC5998384

What was measured:
HeLa Kyoto [1] = experiment: melting temperature (median over replicates), in situ; higher = more thermally stable
HeLa Kyoto [2] = experiment: solubility in G1/S (NP-40 vs SDS abundance) (log2 ratio); higher = more soluble; conditions: cell cycle stage: G1/S
HeLa Kyoto [3] = experiment: thermal stability score vs G1/S (z-score of summed log2 fold changes over temperatures); higher = more thermally stable than in G1/S
HeLa Kyoto [4] = experiment: solubility change mitosis vs G1/S (difference of NP-40 vs SDS log2 ratios) (log2 ratio difference); higher = more soluble in mitosis
[5] = cell cycle stage: early G1 (4.5 h after nocodazole release)
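For melting temperature (median over replicates), in situ in this document: HeLa Kyoto cells synchronized by double thymidine or nocodazole block, proteins quantified by TMT10plex mass spectrometry, three independent biological replicates.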
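For solubility change mitosis vs G1/S (difference of NP-40 vs SDS log2 ratios) in this document: synchronized HeLa Kyoto cells (double thymidine block for G1/S, nocodazole release for mitosis), protein amounts in NP-40 versus SDS lysates quantified by mass spectrometry, three biological replicates.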
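For solubility in G1/S (NP-40 vs SDS abundance) in this document: HeLa Kyoto cells arrested at G1/S by double thymidine block, proteins quantified by TMT10plex mass spectrometry in mild NP-40 versus SDS extracts, three biological replicates.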
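For thermal stability score vs G1/S (z-score of summed log2 fold changes over temperatures) in this document: synchronized HeLa Kyoto cells, proteins quantified by TMT10plex mass spectrometry, three biological replicates, mitosis taken 0.5 h after nocodazole release, G1/S directly after double thymidine block.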

Sequence	melting temperature (HeLa Kyoto [1]; cell cycle stage: G1/S)	melting temperature (HeLa Kyoto [1]; cell cycle stage: mitosis)	solubility in G1/S (log2) (HeLa Kyoto [2])	thermal stability score (HeLa Kyoto [3]; [5])	thermal stability score (HeLa Kyoto [3]; cell cycle stage: mitosis)	solubility change mitosis (log2) (HeLa Kyoto [4])
MAEFLDDQETRLCDNCKKEIPVFNFTIHEIHCQRNIGMCPTCKEPFPKSDMETHMAAEHCQVTCKCNKKLEKRLLKKHEETECPLRLAVCQHCDLELSILKLKEHEDYCGARTELCGNCGRNVLVKDLKTHPEVCGREGEEKRNEVAIPPNAYDESWGQDGIWIASQLLRQIEALDPPMRLPRRPLRAFESDVFHNRTTNQRNITAQVSIQNNLFEEQERQERNRGQQPPKEGGEESANLDFMLALSLQNEGQASSVAEQDFWRAVCEADQSHGGPRSLSDIKGAADEIMLPCEFCEELYPEELLIDHQTSCNPSRALPSLNTGSSSPRGVEEPDVIFQNFLQQAASNQLDSLMGLSNSHPVEESIIIPCEFCGVQLEEEVLFHHQDQCDQRPATATNHVTEGIPRLDSQPQETSPELPRRRVRHQGDLSSGYLDDTKQETANGPTSCLPPSRPINNMTATYNQLSRSTSGPRPGCQPSSPCVPKLSNSDSQDIQGRNRDSQNGAIAPGHVSVIRPPQNLYPENIVPSFSPGPSGRYGASGRSEGGRNSRVTPAAANYRSRTAKAKPSKQQGAGDAEEEEEE [TRAFD1]	53.8 °C	53.9 °C	0.132	-1.71	-2.27	-0.0897
MAEGNHRKKPLKVLESLGKDFLTGVLDNLVEQNVLNWKEEEKKKYYDAKTEDKVRVMADSMQEKQRMAGQMLLQTFFNIDQISPNKKAHPNMEAGPPESGESTDALKLCPHEEFLRLCKERAEEIYPIKERNNRTRLALIICNTEFDHLPPRNGADFDITGMKELLEGLDYSVDVEENLTARDMESALRAFATRPEHKSSDSTFLVLMSHGILEGICGTVHDEKKPDVLLYDTIFQIFNNRNCLSLKDKPKVIIVQACRGANRGELWVRDSPASLEVASSQSSENLEEDAVYKTHVEKDFIAFCSSTPHNVSWRDSTMGSIFITQLITCFQKYSWCCHLEEVFRKVQQSFETPRAKAQMPTIERLSMTRYFYLFPGN [CASP4]	–	50.5 °C	0.0521	0.457	0.45	-0.0831
MAELDPFGAPAGAPGGPALGNGVAGAGEEDPAAAFLAQQESEIAGIENDEAFAILDGGAPGPQPHGEPPGGPDAVDGVMNGEYYQESNGPTDSYAAISQVDRLQSEPESIRKWREEQMERLEALDANSRKQEAEWKEKAIKELEEWYARQDEQLQKTKANNRVADEAFYKQPFADVIGYVTNINHPCYSLEQAAEEAFVNDIDESSPGTEWERVARLCDFNPKSSKQAKDVSRMRSVLISLKQAPLVH [CLTA]	54.7 °C	–	0.31	-6.01	-4.14	0.362
MAELSEEALLSVLPTIRVPKAGDRVHKDECAFSFDTPESEGGLYICMNTFLGFGKQYVERHFNKTGQRVYLHLRRTRRPKEEDPATGTGDPPRKKPTRLAIGVEGGFDLSEEKFELDEDVKIVILPDYLEIARDGLGGLPDIVRDRVTSAVEALLSADSASRKQEVQAWDGEVRQVSKHAFSLKQLDNPARIPPCGWKCSKCDMRENLWLNLTDGSILCGRRYFDGSGGNNHAVEHYRETGYPLAVKLGTITPDGADVYSYDEDDMVLDPSLAEHLSHFGIDMLKMQKTDKTMTELEIDMNQRIGEWELIQESGVPLKPLFGPGYTGIRNLGNSCYLNSVVQVLFSIPDFQRKYVDKLEKIFQNAPTDPTQDFSTQVAKLGHGLLSGEYSKPVPESGDGERVPEQKEVQDGIAPRMFKALIGKGHPEFSTNRQQDAQEFFLHLINMVERNCRSSENPNEVFRFLVEEKIKCLATEKVKYTQRVDYIMQLPVPMDAALNKEELLEYEEKKRQAEEEKMALPELVRAQVPFSSCLEAYGAPEQVDDFWSTALQAKSVAVKTTRFASFPDYLVIQIKKFTFGLDWVPKKLDVSIEMPEELDISQLRGTGLQPGEEELPDIAPPLVTPDEPKGSLGFYGNEDEDSFCSPHFSSPTSPMLDESVIIQLVEMGFPMDACRKAVYYTGNSGAEAAMNWVMSHMDDPDFANPLILPGSSGPGSTSAAADPPPEDCVTTIVSMGFSRDQALKALRATNNSLERAVDWIFSHIDDLDAEAAMDISEGRSAADSISESVPVGPKVRDGPGKYQLFAFISHMGTSTMCGHYVCHIKKEGRWVIYNDQKVCASEKPPKDLGYIYFYQRVAS [USP5]	52 °C	51.9 °C	0.218	0.203	0.183	-0.139
MAELVQGQSAPVGMKAEGFVDALHRVRQIAAKIDSIPHLNNSTPLVDPSVYGYGVQKRPLDDGVGNQLGALVHQRTVITEEFKVPDKMVGFIIGRGGEQISRIQAESGCKIQIASESSGIPERPCVLTGTPESIEQAKRLLGQIVDRCRNGPGFHNDIDSNSTIQEILIPASKVGLVIGRGGETIKQLQERTGVKMVMIQDGPLPTGADKPLRITGDAFKVQQAREMVLEIIREKDQADFRGVRGDFNSRMGGGSIEVSVPRFAVGIVIGRNGEMIKKIQNDAGVRIQFKPDDGISPERAAQVMGPPDRCQHAAHIISELILTAQERDGFGGLAAARGRGRGRGDWSVGAPGGVQEITYTVPADKCGLVIGKGGENIKSINQQSGAHVELQRNPPPNSDPNLRRFTIRGVPQQIEVARQLIDEKVGGTNLGAPGAFGQSPFSQPPAPPHQNTFPPRSSGCFPNMAAKVNGNPHSTPVSGPPAFLTQGWGSTYQAWQQPTQQVPSQQSQPQSSQPNYSKAWEDYYKKQSHAASAAPQASSPPDYTMAWAEYYRQQVAFYGQTLGQAQAHSQEQ [FUBP3]	48.7 °C	49.5 °C	0.337	0.0807	1.05	-0.0288
MAEMGSKGVTAGKIASNVQKKLTRAQEKVLQKLGKADETKDEQFEQCVQNFNKQLTEGTRLQKDLRTYLASVKAMHEASKKLNECLQEVYEPDWPGRDEANKIAENNDLLWMDYHQKLVDQALLTMDTYLGQFPDIKSRIAKRGRKLVDYDSARHHYESLQTAKKKDEAKIAKPVSLLEKAAPQWCQGKLQAHLVAQTNLLRNQAEEELIKAQKVFEEMNVDLQEELPSLWNSRVGFYVNTFQSIAGLEENFHKEMSKLNQNLNDVLVGLEKQHGSNTFTVKAQPSDNAPAKGNKSPSPPDGSPAATPEIRVNHEPEPAGGATPGATLPKSPSQLRKGPPVPPPPKHTPSKEVKQEQILSLFEDTFVPEISVTTPSQFEAPGPFSEQASLLDLDFDPLPPVTSPVKAPTPSGQSIPWDLWEPTESPAGSLPSGEPSAAEGTFAVSWPSQTAEPGPAQPAEASEVAGGTQPAAGAQEPGETAASEAASSSLPAVVVETFPATVNGTVEGGSGAGRLDLPPGFMFKVQAQHDYTATDTDELQLKAGDVVLVIPFQNPEEQDEGWLMGVKESDWNQHKELEKCRGVFPENFTERVP [BIN1]	51.9 °C	51.6 °C	0.803	-1.69	0.531	-0.0586
MAENSVLTSTTGRTSLADSSIFDSKVTEISKENLLIGSTSYVEEEMPQIETRVILVQEAGKQEELIKALKTIKIMEVPVIKIKESCPGKSDEKLIKSVINMDIKVGFVKMESVEEFEGLDSPEFENVFVVTDFQDSVFNDLYKADCRVIGPPVVLNCSQKGEPLPFSCRPLYCTSMMNLVLCFTGFRKKEELVRLVTLVHHMGGVIRKDFNSKVTHLVANCTQGEKFRVAVSLGTPIMKPEWIYKAWERRNEQDFYAAVDDFRNEFKVPPFQDCILSFLGFSDEEKTNMEEMTEMQGGKYLPLGDERCTHLVVEENIVKDLPFEPSKKLYVVKQEWFWGSIQMDARAGETMYLYEKANTPELKKSVSMLSLNTPNSNRKRRRLKETLAQLSRETDVSPFPPRKRPSAEHSLSIGSLLDISNTPESSINYGDTPKSCTKSSKSSTPVPSKQSARWQVAKELYQTESNYVNILATIIQLFQVPLEEEGQRGGPILAPEEIKTIFGSIPDIFDVHTKIKDDLEDLIVNWDESKSIGDIFLKYSKDLVKTYPPFVNFFEMSKETIIKCEKQKPRFHAFLKINQAKPECGRQSLVELLIRPVQRLPSVALLLNDLKKHTADENPDKSTLEKAIGSLKEVMTHINEDKRKTEAQKQIFDVVYEVDGCPANLLSSHRSLVQRVETISLGEHPCDRGEQVTLFLFNDCLEIARKRHKVIGTFRSPHGQTRPPASLKHIHLMPLSQIKKVLDIRETEDCHNAFALLVRPPTEQANVLLSFQMTSDELPKENWLKMLCRHVANTICKADAENLIYTADPESFEVNTKDMDSTLSRASRAIKKTSKKVTRAFSFSKTPKRALRRALMTSHGSVEGRSPSSNDKHVMSRLSSTSSLAGIPSPSLVSLPSFFERRSHTLSRSTTHLI [ECT2]	46.9 °C	49.4 °C	-0.347	0.718	0.962	0.255
MAEPDPSHPLETQAGKVQEAQDSDSDSEGGAAGGEADMDFLRNLFSQTLSLGSQKERLLDELTLEGVARYMQSERCRRVICLVGAGISTSAGIPDFRSPSTGLYDNLEKYHLPYPEAIFEISYFKKHPEPFFALAKELYPGQFKPTICHYFMRLLKDKGLLLRCYTQNIDTLERIAGLEQEDLVEAHGTFYTSHCVSASCRHEYPLSWMKEKIFSEVTPKCEDCQSLVKPDIVFFGESLPARFFSCMQSDFLKVDLLLVMGTSLQVQPFASLISKAPLSTPRLLINKEKAGQSDPFLGMIMGLGGGMDFDSKKAYRDVAWLGECDQGCLALAELLGWKKELEDLVRREHASIDAQSGAGVPNPSTSASPKKSPPPAKDEARTTEREKPQ [SIRT2]	51.4 °C	52.5 °C	0.229	0.148	-0.178	-0.026
MAEPSAATQSHSISSSSFGAEPSAPGGGGSPGACPALGTKSCSSSCADSFVSSSSSQPVSLFSTSQEGLSSLCSDEPSSEIMTSSFLSSSEIHNTGLTILHGEKSHVLGSQPILAKEGKDHLDLLDMKKMEKPQGTSNNVSDSSVSLAAGVHCDRPSIPASFPEHPAFLSKKIGQVEEQIDKETKNPNGVSSREAKTALDADDRFTLLTAQKPPTEYSKVEGIYTYSLSPSKVSGDDVIEKDSPESPFEVIIDKAAFDKEFKDSYKESTDDFGSWSVHTDKESSEDISETNDKLFPLRNKEAGRYPMSALLSRQFSHTNAALEEVSRCVNDMHNFTNEILTWDLVPQVKQQTDKSSDCITKTTGLDMSEYNSEIPVVNLKTSTHQKTPVCSIDGSTPITKSTGDWAEASLQQENAITGKPVPDSLNSTKEFSIKGVQGNMQKQDDTLAELPGSPPEKCDSLGSGVATVKVVLPDDHLKDEMDWQSSALGEITEADSSGESDDTVIEDITADTSFENNKIQAEKPVSIPSAVVKTGEREIKEIPSCEREEKTSKNFEELVSDSELHQDQPDILGRSPASEAACSKVPDTNVSLEDVSEVAPEKPITTENPKLPSTVSPNVFNETEFSLNVTTSAYLESLHGKNVKHIDDSSPEDLIAAFTETRDKGIVDSERNAFKAISEKMTDFKTTPPVEVLHENESGGSEIKDIGSKYSEQSKETNGSEPLGVFPTQGTPVASLDLEQEQLTIKALKELGERQVEKSTSAQRDAELPSEEVLKQTFTFAPESWPQRSYDILERNVKNGSDLGISQKPITIRETTRVDAVSSLSKTELVKKHVLARLLTDFSVHDLIFWRDVKKTGFVFGTTLIMLLSLAAFSVISVVSYLILALLSVTISFRIYKSVIQAVQKSEEGHPFKAYLDVDITLSSEAFHNYMNAAMVHINRALKLIIRLFLVEDLVDSLKLAVFMWLMTYVGAVFNGITLLILAELLIFSVPIVYEKYKTQIDHYVGIARDQTKSIVEKIQAKLPGIAKKKAE [RTN3]	55.7 °C	57.6 °C	0.125	0.293	-1.15	-0.108
